Measured values taken from PMC8787478.

Experiments:
Assay in all cases: EMSA
Settings in all cases: EMSA: 10 mM Tris pH 7.5, 50 mM KCl, 1 mM EDTA, 1 mM DTT, 5% glycerol, 100 ug/mL BSA, 5 ug/mL poly(dI-dC), 0.25 nM probe, 25 C; footprinting: 10 mM Tris pH 8.0 …
[1] = target: T1, Vfr (Pseudomonas aeruginosa) (UniProt P55222)
T1 sequence: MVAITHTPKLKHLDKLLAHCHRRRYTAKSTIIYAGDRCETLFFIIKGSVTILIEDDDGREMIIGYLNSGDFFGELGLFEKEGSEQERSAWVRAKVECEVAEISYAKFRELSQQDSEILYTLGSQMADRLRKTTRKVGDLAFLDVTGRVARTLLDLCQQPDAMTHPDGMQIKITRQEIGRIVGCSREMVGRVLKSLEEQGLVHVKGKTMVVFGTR

[2] = target: T2, His6-AlgR (Pseudomonas aeruginosa PAK) (UniProt P26275)
T2 sequence: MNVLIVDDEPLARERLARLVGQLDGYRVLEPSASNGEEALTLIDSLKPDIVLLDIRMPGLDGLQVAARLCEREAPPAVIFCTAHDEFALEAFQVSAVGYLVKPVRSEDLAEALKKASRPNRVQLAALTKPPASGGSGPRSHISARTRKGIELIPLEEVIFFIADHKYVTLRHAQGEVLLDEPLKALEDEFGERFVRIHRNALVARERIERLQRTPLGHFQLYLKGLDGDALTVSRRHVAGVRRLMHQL

[3] = target: T3, Vfr;His6-AlgR (Pseudomonas aeruginosa;Pseudomonas aeruginosa PAK) (UniProt P55222+P26275)
T3 sequence 1: T1 sequence
T3 sequence 2: T2 sequence

[4] = tested on: His6-AlgR (Pseudomonas aeruginosa PAK)

Substance | binding [1] | other results
GTACGGGCGAAATAAAGCACCGAAATGTCATCTGCCAAATCAAACCGCGAAACAGCGCTCGTTCCGGCTTCGTCGACGAGCCGCCGGTTTTTCCTCCCGGCCTGCTATCATCGTCGCACTTTGCCCGTCACGCAGGCCGCGCG (double strand) [PalgZ VBS3 mutant] | binds | –
GCATACCGTTGCCTGGCAACTGATCCTCAACCGGCAGGGCCGGCTCCGTACCGCGAGCGCCAGGGAGAACCGGGAGAAACGTGAGCTATGCAGCACTTCCGGATGATCATGGACCAGTTGTCCTGCCCCACGGGCCGACCGTCAACGACCGCAAGACGCTCCCAGGCCCGTTTGGCATGCTTTCCAGGCGTAGAC (double strand) [PfimU WT] | binds | binding [2]: binds; binding [3]: binds
PfimU WT | – | K half [4]: > 351 nM
GTACGGGCGAAATAAAGCACCGAAATGCCATCTGCCGCAAAAAACCGCGAAACAGCGCTCGTTCCGGCTTCGTCGACGAGCCGCCGGTTTTTCCTCCCGGCCAGTAATCATCGTTGCCCTTTGCCCGTCACGCAGGCCGCGCG (double strand) [PalgZ VBS1 mutant] | binds more weakly | –
GTACGGGCGAAATAAAGCACCGAAATGTCATCTGCCAAATCAAACCACAGAACAGCGATACTTCCGGCTTCGTCGACGAGCCGCCGGTTTTTCCTCCCGGCCAGTAATCATCGTTGCCCTTTGCCCGTCACGCAGGCCGCGCG (double strand) [PalgZ VBS1-2-3 mutant] | no binding | –
GTACGGGCGAAATAAAGCACCGAAATGTCATCTGCCAAATCAAACCGCGAAACAGCGCTCGTTCCGGCTTCGTCGACGAGCCGCCGGTTTTTCCTCCCGGCCAGTAATCATCGTTGCCCTTTGCCCGTCACGCAGGCCGCGCG (double strand) [PalgZ VBS1-3 mutant (VBS1 and VBS3)] | binds more weakly | –
GTACGGGCGAAATAAAGCACCGAAATGTCATCTGCCAAATCAAACCACAGAACAGCGATACTTCCGGCTTCGTCGACGAGCCGCCGGTTTTTCCTCCCGGCCTGCTATCATCGTCGCACTTTGCCCGTCACGCAGGCCGCGCG (double strand) [PalgZ VBS2-3 mutant] | binds more weakly | –
